The record followed here is patent publication US20150147342A1 (published 2015).

In general, Kd refers to a measure of binding affinity in units of concentration.

Common to all, as to assay: SPR, hIgG1 antibody captured, room temp
The target of experiment [1] is T1, Dimeric fibrinogen-like domain of human Ang-2 conjugated to human IgG1 (human).
T1 construct: also called Dimeric Human Ang-2FD; Human Ang-2FD-hFc
The method, then: (§1) Antibody was captured on a goat anti-mouse IgG polyclonal antibody surface, a goat anti-human κ polyclonal antibody (Southern Biotech, Birmingham, Ala.) surface or a goat anti-human IgG polyclonal antibody (Jackson Immuno Research Lab, West Grove, Pa.) surface created through direct amine coupling to a BIACORE™ CM5 sensor chip to form a captured antibody surface. […] Antigen-antibody binding and dissociation were monitored in real time at room temperature. Kinetic analysis was performed to calculate KD and half-life of antigen/antibody complex dissociation.
(§2) The above experiment was repeated using selected purified anti-Ang-2 antibodies cloned onto human IgG1.

Experiment [2] deals with T2, Dimeric fibrinogen-like domain of mouse (Mus musculus) Ang-2 conjugated to human IgG1 (mouse (Mus musculus)).
T2 construct: also called Dimeric Mouse Ang-2FD; Mouse Ang-2FD-hFc
As to the method: as §1, §2

Experiment [3] addresses T3, Dimeric fibrinogen-like domain of monkey (Macca fascicularis) Ang-2 conjugated to human IgG1 (monkey (Macca fascicularis)).
T3 construct: also called Dimeric Monkey Ang-2FD; Monkey Ang-2FD-hFc
The method, then: as §1, §2

T1 sequence (chain, as listed by the source limits assumed): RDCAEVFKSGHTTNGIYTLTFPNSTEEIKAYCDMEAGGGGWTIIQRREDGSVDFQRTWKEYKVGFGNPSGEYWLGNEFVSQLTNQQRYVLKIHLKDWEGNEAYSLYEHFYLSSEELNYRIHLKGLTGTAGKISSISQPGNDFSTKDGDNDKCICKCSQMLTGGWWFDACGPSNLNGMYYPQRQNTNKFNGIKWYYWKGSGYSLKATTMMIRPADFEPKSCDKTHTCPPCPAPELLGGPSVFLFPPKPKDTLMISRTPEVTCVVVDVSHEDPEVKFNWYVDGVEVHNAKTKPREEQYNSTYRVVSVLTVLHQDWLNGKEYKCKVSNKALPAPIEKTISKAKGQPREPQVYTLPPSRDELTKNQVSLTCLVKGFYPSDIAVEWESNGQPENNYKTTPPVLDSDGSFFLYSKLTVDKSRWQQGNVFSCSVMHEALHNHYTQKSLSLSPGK
T3 sequence (chain, as listed by the source limits assumed): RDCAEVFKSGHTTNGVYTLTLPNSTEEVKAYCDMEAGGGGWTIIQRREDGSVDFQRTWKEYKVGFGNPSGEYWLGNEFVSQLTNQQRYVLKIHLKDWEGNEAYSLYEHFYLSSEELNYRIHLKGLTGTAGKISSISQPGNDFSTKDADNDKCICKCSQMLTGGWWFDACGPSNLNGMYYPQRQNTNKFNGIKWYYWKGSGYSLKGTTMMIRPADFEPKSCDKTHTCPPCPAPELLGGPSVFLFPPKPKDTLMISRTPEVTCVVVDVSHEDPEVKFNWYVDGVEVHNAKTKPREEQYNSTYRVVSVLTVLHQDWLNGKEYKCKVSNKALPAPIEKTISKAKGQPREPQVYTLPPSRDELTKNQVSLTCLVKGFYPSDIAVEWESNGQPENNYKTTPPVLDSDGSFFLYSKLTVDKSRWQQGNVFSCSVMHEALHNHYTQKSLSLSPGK
T2 sequence (chain, as listed by the source limits assumed): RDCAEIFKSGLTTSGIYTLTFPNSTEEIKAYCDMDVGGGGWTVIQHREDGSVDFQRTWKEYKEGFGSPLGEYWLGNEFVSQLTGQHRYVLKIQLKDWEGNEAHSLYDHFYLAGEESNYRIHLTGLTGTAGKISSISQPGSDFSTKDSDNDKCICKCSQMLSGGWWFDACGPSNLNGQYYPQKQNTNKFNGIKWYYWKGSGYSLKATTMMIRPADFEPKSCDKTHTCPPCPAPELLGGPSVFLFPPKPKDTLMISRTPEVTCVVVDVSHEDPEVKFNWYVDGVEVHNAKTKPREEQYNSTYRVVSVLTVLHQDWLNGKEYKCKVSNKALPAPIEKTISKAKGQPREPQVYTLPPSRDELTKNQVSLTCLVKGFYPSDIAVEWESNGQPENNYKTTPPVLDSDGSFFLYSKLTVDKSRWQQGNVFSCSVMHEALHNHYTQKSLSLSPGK

B1: H1H749N (antibody, V domains shown)
VH: QVQLVESGGGVVQPGRSLRLSCAASGFTFSSYGMHWVRQAPGKGLEWVAVIWYDEFNKYYADSVKGRFTISRDNSKNTLYLQMNSLRAEDTAVYYCARERESGYSYGFDYWGQGTLVTVSS
VL: EIVMTQSPATLSVSPGERATLSCRAGQSVSSNLAWYQQKPGQAPRLLIYGASTRATGIPARFSGSGSGTEFTLTISSLQSEDFAVYYCQQYNNWWTFGQGTKVEIK
In the case of B1, the Kd in experiment [1] stood at 0.118 nM; in experiment [2], 0.177 nM; in experiment [3], 0.407 nM. In addition, the figures for the “T1/2” value in experiment [1], in experiment [2] and in experiment [3] were 1.82 h, 1.6 h and 2.38 h, respectively.

B2: H1H743N (antibody, V domains shown)
VH: EVQLLESGGGLVQPGGSLRLSCAASGFTFRKYAMSWVRQAPGKGLEWVSVISVSGGNTYYADSVKGRFTISRDNSKNTLYLQLNSLRAEDTAVYYCAKDLTDIVLMVYVDYWGQGTLVTVSS
VL: DIQMTQSPSSVSASVGDRVTITCRASQDIDRWLAWYQQKPGKAPKLLIYAASSLQSGVPSRFSGSGSGTDFTLTISTLQPEDFATYYCQQANSLPFTFGGGTKVEIK
On to B2, for which the Kd in experiment [1] was 0.0882 nM; in experiment [2], 0.124 nM; in experiment [3], 0.0965 nM. Also, the “T1/2” value in experiment [1] was determined as 4.23 h; in experiment [2], 3.88 h; in experiment [3] it was 13 h.

B3: H1H704P (antibody, V domains shown)
VH: QVQLVESGGDVVQPGRSLRLSCAASGFTFSSYGMHWVRQAPGKGLEWVAIIWYDGSNKYYADSVKGRFTISRDNSKNTLYLQMNSLRVEDTAVYSCARDFSISSRHFDYWGQGTLVTVSS
VL: DIQMTQSPSSLSASVGDRVTITCRASQAINNYLAWFQQKPGKAPKSLIYATSNLQSGVPSQFSGSGSGTDYTLTISSLQPEDFATYYCQQYYIYPITFGQGTRLEIK
Regarding B3, the Kd in experiment [1] came out at 0.331 nM; in experiment [2], 0.484 nM; in experiment [3] it was 0.818 nM. The figures for the “T1/2” value in experiment [1], in experiment [2] and in experiment [3] were 1.43 h, 1.03 h and 0.558 h, respectively.

B4: H1H742N (antibody, V domains shown)
VH: DVQLLESGGDLVQPGGSLRLSCEASGFTFRNYVMIWVRQAPGKGLEWVSGISNSGGTTHYTDSVKGRFTISRDNSKNTLYLQINSLRAEDTAVYYCAKGYLDTSLIEGNWFDPWGQGTLVTVSS
VL: NIVMTQSPLSLPVTPGEPASISCRSSQSLLHSNGFNYLNWFLQKPGQSPQLLIYLGSNRASGVPDKFSGSGSGTDFTLNINRVEAEDVGIYFCMQTLQTPLTFGGGTKVEIK
As for B4, the figures for the Kd in experiment [1], in experiment [2] and in experiment [3] were 0.186 nM, 0.276 nM and 0.683 nM, respectively. In addition, the “T1/2” value in experiment [1] came out at 1.08 h; in experiment [2] it was 0.967 h; in experiment [3] it was 1.55 h.

B5: H1H691P (antibody, V domains shown)
VH: EVQLVESGGGLVQPGRSLRLSCAASGFTFDDYAMHWVRQAPGKGLEWVSGISWNSGDIGYADSVKGRFTISRDNAKNSLYLQMNSLRAQDTALYYCAKAYGDYYYFYGMDVWGQGTTVTVS
VL: EIVLTQSPGTLSLSPGERATLSCRASQSVSSSYLAWYQQKPGQAPRLLIFSASSRATGIPDRFSGSGSGTDFTLTISRLEPEDFAVYYCQQYDNSLTFGGGTKVEIK
As to B5, the dissociation constant (Kd) in experiment [1] amounted to 0.22 nM; in experiment [2], 0.22 nM; in experiment [3], 0.29 nM. Further, the “T1/2” value was 0.642 h in experiment [1], 0.73 h in experiment [2] and 0.683 h in experiment [3].

B6: H1H706P (antibody, V domains shown)
VH: QVQLVESGGGVVQPGRSLRLSCAASGFTFSSYGMHWVRQAPDKGLEWVAVKWDDGSNKYYADSVKGRFTISRDNSKNTLYLQMNSLRAEDTAVYYCAREGPYDFYSGYGAFDIWGQGTMVTVSS
VL: DIQMTQSPSSLSASVGDRVTITCRASQGISNYLAWFQQKPGKAPKSLIYAASSLQSGVPSKFSGSGSGTDFTLTISSLQPEDFATYYCQQYNSYPRTFGQGTKVEIK
Turning to B6, the Kd is 0.201 nM in experiment [1], 0.357 nM in experiment [2] and 0.164 nM in experiment [3]. The entries for the “T1/2” value in experiment [1], in experiment [2] and in experiment [3] were 0.84 h, 0.783 h and 0.888 h, respectively.

B7: H1H693P (antibody, V domains shown)
VH: EVQLVESGGGLVQPGESLRLSCAASGFTFSSYAMSWVRQGPGKGLEWVSSISGSGGTTYYADSVEGRFTISRDNSKNTLYLHMNSLRAEDTAVYYCAKDFLDYSTYLAFDLWGQGTMVTVSS
VL: DIQMTQSPSSVSASVGDRVTITCRASQGISSWLAWYQQKPGKAPKLLIYAASSLQSGVPSRFSGSGSGTDFTLTISSLQPEDFATYYCQQANSFPRTFGQGTKVEIK
Turning to B7, the Kd in experiment [1] stood at 0.5 nM; in experiment [2], 0.446 nM; in experiment [3] it was 1.17 nM. Besides, the “T1/2” value in experiment [1] came to 0.618 h; in experiment [2], 1.06 h; in experiment [3], 0.293 h.

B8: H1H707P (antibody, V domains shown)
VH: QVQLVESGGGVVQPGRSLRLSCAASGFTFSSYGMHWVRQAPDKGLEWVAVKWDDGSNKYYADSVKGRFTISRDNSKNTLYLQMNSLRAEDTAVYYCAREGPYDFYSGYGAFDIWGQGTMVTVSS
VL: not shown
As to B8, the figures for the Kd in experiment [1], in experiment [2] and in experiment [3] were 0.262 nM, 0.328 nM and 0.283 nM, respectively. Further, the “T1/2” value in experiment [1] is 0.443 h; in experiment [2] it was 0.573 h; in experiment [3], 0.372 h.

B9: H1H690P (antibody, V domains shown)
VH: EVQLVESGGGLVQPGESLRLSCAASGFTFSSYAMSWVRQGPGKGLEWVSSITGSGDTTYYADSVKGRFTISRDNSKNTLYLHMNSLRAEDTAVYYCAKDFLDYSTYLAFDLWGQGTMVTVSS
VL: EIVLTQSPATLSLSPGERATLSCRASQSVSSYLTWYQQKPGQAPRLLSYDASNRATGIPARFSGSGSGTDFTLTISSLEPEDFAVYYCQQRSNWPLTFGGGTKVEIK
For B9, the figures for the Kd in experiment [1], in experiment [2] and in experiment [3] were 0.079 nM, 0.0913 nM and 0.0556 nM, respectively. Moreover, the “T1/2” value in experiment [1] was found to be 2.1 h; in experiment [2], 1.75 h; in experiment [3], 3.25 h.

B10: H1H728N (antibody, V domains shown)
VH: EVQLVESGGDLVQPGGSLRLSCTASGFTFSKYWMTWVRQAPGRGLEWVANIKEDGNEKYFLDSVKGRFTISRDNAKDLLFLQMNSLRGEDTAVYYCVRDRGIEVAGPFDYWGQGTLVTVSS
VL: DIQMTQSPSTLSASVGDRVTVTCRASQTIINWLAWYQQKPGKAPKLLISKASSLESGVPSRFSGSGSGTEFTLTISSLQPDDFATYYCQQYNRYWTFGQGTMVEIK
For the molecule B10, the Kd in experiment [1] turned out to be 0.162 nM; in experiment [2], 5.76 nM; in experiment [3] it was 2 nM. In addition, the “T1/2” value in experiment [1] came to 1.35 h; in experiment [2], 0.333 h; in experiment [3], 1.28 h.

B11: H1H730N (antibody, V domains shown)
VH: EVQLVESGGGLVQPGGSLRLSCAASGFAFRSYWMTWVRQAPGKGLEWVANIQQDGNDKYYVDSVKGRFTISRDNAKNSLYLQMNSLRAEDTAVYYCARDTGIAEAGPFDYWGQGTLVTVSS
VL: DIQMTQSPSTLSASVGDRVSITCRASQTIISWLAWYQQKPGKAPRLLIYKASSLESGVPSRFSGSGSGTEFTLTINSLQPDDFATYYCQQYNRYWTFGQGTKVEIK
For B11, the Kd was determined as 0.234 nM in experiment [1], 0.0971 nM in experiment [2] and 3.4 nM in experiment [3]. The “T1/2” value in experiment [1] was 1.03 h; in experiment [2], 1.5 h; in experiment [3], 1.45 h.

B12: H1H724N (antibody, V domains shown)
VH: QVQLVESGGGVVQPGRSLRLSCAASGFTLSNYGMHWVRQAPGKGLEWVAVIWHDGSNTYYADSVKGRFTISRDNSKNTLYLQMNSLRAEDTAVYYCTREGLDFWSGYYPNWFDPWGQGTLVTVSS
VL: DIQMTQSPSSLSASVGDRVTITCRASQGIRNDLGWYQQKPGKAPKRLIYAASNLQGGVPSRFSGSGSGTEFTLTISSLQPEDFAAYYCLQHNIYPLTFGGGTKVEIK
Take B12: the Kd stood at 0.115 nM in experiment [1], 0.185 nM in experiment [2] and 0.239 nM in experiment [3]. Besides, the “T1/2” value in experiment [1] is 1.78 h; in experiment [2], 1.4 h; in experiment [3], 2.88 h.

B13: H1H732N (antibody, V domains shown)
VH: EVQLVESGGGLVRPGGSLRLSCAASGFTFTNAWMSWVRQAPGKGLEWIGQIKSKTDGGTIDYAAPVKGRFTVSRDDSENTLFLQMNSLKTEDTAVYYCAGNWNYVDFDYWGQGTLVTVSS
VL: DIQMTQSPSSLSASVGDRVTITCRASQDIRNDLGWYQQKPGKAPKRLIYAASSLQGGVPSRFSGSGSGTEFTLTISSLQPEDFATYYCLQHNSYPFTFGPGTKVDIK
B13: the Kd in experiment [1] was determined as 0.386 nM; in experiment [2], 0.529 nM; in experiment [3] it was 0.439 nM. The “T1/2” value in experiment [1] was 0.95 h; in experiment [2], 0.85 h; in experiment [3], 1.97 h.

B14: H1H750N (antibody, V domains shown)
VH: QVKLVESGGGVVQPGRSLRVSCAASGFTFSSYGMHWVRQAPGKGLEWLAIIWYDGDNKYYSDSVKGRFTISRDNSKNTLYLQMNSLRAEDTAEYYCVRDASIASRFLDYWGQGTLVTVSS
VL: DIQMTQSPSSLSASIGDRVTITCRATQDINNYLAWFQQKPGKAPKSLIYATSNLQSGVPSKFSGSGSGTDYTLTISSLQPEDFSTYYCQQYHSYPLTFGGGTKVEIK
With B14, the figures for the dissociation constant Kd in experiment [1], in experiment [2] and in experiment [3] were 0.164 nM, 0.218 nM and 0.199 nM, respectively. Also, the “T1/2” value in experiment [1] is 2.12 h; in experiment [2], 2.02 h; in experiment [3], 4.07 h.
